We go through 1 molecule from patent publication US20250313615A1 (ANNEXON, published 2025).

This assay has as its target T1, complement factor C1q (Homo sapiens, UniProt P02745 23-245; P02746 28-253; P02747 29-245).
T1 construct: also called soluble C1q
The assay is described as follows: in vivo, phase 1b interim analysis in four lupus nephritis patients; pharmacodynamic read-out.

T1 sequence (P02745 23-245 limits assumed, chain 1 of 3): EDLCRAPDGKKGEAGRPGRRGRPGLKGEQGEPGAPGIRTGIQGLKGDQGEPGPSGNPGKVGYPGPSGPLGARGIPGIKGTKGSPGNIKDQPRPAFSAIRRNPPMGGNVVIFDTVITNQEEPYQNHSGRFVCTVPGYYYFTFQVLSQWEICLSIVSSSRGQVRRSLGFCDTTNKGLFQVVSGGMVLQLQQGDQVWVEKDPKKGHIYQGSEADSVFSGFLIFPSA
T1 sequence (P02746 28-253 limits assumed, chain 2 of 3): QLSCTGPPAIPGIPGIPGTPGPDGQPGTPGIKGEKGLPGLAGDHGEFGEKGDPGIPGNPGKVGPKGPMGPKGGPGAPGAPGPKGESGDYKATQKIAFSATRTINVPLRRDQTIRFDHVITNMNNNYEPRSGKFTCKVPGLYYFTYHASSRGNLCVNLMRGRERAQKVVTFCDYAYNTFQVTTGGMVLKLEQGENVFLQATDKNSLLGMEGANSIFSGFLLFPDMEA
T1 sequence (P02747 29-245 limits assumed, chain 3 of 3): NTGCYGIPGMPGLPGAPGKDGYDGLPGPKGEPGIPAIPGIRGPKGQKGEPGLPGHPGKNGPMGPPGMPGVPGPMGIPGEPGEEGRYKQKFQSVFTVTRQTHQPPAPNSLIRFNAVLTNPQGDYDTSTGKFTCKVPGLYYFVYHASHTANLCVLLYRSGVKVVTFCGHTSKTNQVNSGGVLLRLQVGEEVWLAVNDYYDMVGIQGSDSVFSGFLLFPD

B1: FabA (Fab)
heavy: QVQLVQSGAELKKPGASVKVSCKSSGYHFTSYWMHWVKQAPGQGLEWIGVIHPNSGSINYNEKFESRVTITVDKSTSTAYMELSSLRSEDTAVYYCAGERDSTEVLPMDYWGQGTTVTVSSASTKGPSVFPLAPSSKSTSGGTAALGCLVKDYFPEPVTVSWNSGALTSGVHTFPAVLQSSGLYSLSSVVTVPSSSLGTQTYICNVNHKPSNTKVDKKVEPKSCDKTHT
light: DVQITQSPSSLSASLGERATINCRASKSINKYLAWYQQKPGKAPKLLIYSGSTLQSGIPARFSGSGSGTDFTLTISSLEPEDFAMYYCQQHNEYPLTFGQGTKLEIKRTVAAPSVFIFPPSDEQLKSGTASVVCLLNNFYPREAKVQWKVDNALQSGNSQESVTEQDSKDSTYSLSSTLTLSKADYEKHKVYACEVTHQGLSSPVTKSFNRGEC
notes: also called anti-C1q Fab; anti-C1q antibody Fab fragment
As to B1, the binding result is reported as “binds”.
